Laboratory results reported in doi:10.1101/2025.09.11.675682, “Weak SLP-76-PLC-γ1 interaction in the LAT-nucleated multi-protein complex fine-tunes TCR signal strength to optimize T cell responsiveness” (bioRxiv, 2025).
Blank lines part the entries; values can stand above or below the binder they belong to.

Columns and labels:
[1] = target: T1, PLC-γ1 (Phospholipase C-γ1), 1–1219 (UniProt P19174 1-1219); assay: ITC; VP-ITC; 5°C; 20 mM Hepes (pH 7.4), 100 mM NaCl, 0.1 mM DTT; 4 μM in the cell, 40 μM in the syringe; single binding site fit with 1:1 stoichiometry; 3 independent experiments; settings: both partners purified
T1 construct: the text calls it full length PLC-γ1; also called full length PLC-γ1
T1 sequence (looked up): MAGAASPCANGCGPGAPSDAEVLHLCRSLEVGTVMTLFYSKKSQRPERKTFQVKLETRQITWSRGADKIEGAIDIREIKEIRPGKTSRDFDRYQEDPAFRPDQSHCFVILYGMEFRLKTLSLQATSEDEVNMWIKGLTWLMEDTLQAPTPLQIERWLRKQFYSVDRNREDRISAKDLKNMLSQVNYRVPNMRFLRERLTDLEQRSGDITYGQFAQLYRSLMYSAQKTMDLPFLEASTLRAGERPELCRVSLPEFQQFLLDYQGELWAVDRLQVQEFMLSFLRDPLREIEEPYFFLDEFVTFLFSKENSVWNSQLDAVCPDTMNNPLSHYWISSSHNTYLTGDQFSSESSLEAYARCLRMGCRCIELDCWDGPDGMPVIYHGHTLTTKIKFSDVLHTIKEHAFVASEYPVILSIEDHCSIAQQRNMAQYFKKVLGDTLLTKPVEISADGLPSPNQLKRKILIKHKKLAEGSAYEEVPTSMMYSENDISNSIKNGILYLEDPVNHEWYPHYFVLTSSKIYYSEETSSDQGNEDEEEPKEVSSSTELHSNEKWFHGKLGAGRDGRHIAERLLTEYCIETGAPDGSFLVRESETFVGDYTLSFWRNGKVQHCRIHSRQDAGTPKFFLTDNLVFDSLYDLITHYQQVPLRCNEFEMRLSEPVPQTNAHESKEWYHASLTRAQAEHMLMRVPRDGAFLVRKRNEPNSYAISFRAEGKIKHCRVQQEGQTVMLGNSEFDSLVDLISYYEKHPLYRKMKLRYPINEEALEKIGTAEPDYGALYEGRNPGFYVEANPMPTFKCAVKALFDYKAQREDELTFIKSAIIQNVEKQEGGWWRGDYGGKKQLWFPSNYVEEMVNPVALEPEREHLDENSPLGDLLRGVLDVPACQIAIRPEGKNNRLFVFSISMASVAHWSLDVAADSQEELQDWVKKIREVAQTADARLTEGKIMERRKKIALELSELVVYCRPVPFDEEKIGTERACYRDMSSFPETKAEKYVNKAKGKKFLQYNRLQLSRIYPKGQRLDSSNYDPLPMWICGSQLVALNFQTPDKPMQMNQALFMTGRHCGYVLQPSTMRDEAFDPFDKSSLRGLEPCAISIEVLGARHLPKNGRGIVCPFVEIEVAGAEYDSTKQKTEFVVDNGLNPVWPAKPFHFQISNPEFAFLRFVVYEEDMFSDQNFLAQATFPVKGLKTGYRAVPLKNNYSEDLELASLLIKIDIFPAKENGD

[2] = target: T1, PLC-γ1 (Phospholipase C-γ1), 1–1219; assay: cell-based or functional assay

- Kd [1]: 3.99 µM
- dH [1]: -3.3 kcal/mol
B1: SLP-76 PRR peptide (aa 185–200), wild type (peptide, UniProt Q13094 185-200, looked up)
peptide: QPPVPPQRPMAALPPP
notes: SLP-76 proline-rich region, residues 185–200; also called SLP-76 185–200 (WT); SLP-76 PRR_(185–200) peptide

- Kd [1]: 2.32 µM
- dH [1]: -3.8 kcal/mol
- PLC-γ1 activity (IP3 from PIP2-bearing liposomes): LAT-Gads-SLP-76^WT-PLC-γ1 tetramer against PLC-γ1 with phospho-LAT alone [2]: 1.7 fold
B2: SLP-76^WT polypeptide (aa 103–258, Y113F, Y173F) (domain or fragment, UniProt Q13094 103-258, looked up)
chain: GGWSSFEEDDFESPNDDQDGEDDGDYESPNEEEEAPVEDDADYEPPPSNDEEALQNSILPAKPFPNSNSMFIDRPPSGKTPQQPPVPPQRPMAALPPPPAGRNHSPLPPPQTNHEEPSRSRNHKTAKLPAPSIDRSTKPPLDRSLAPFDREPFTLG
notes: wild-type proline-rich region; not shown: His6, N-terminal, cleaved; GST, N-terminal, cleaved
